Biological target: T1, human VEGF-A residues 27-191 of Accession # AAV38412 (human, UniProt P15692 27-191)
T1 construct: range 27-191
Experiment: SPR (BIAcore T200), cited from Table 21
Method: Coupling running buffer was HBS-EP+ running buffer (10 mM HEPES, 150 mM sodium chloride, 3 mM EDTA 0.05% P-20, pH 7.4); assay running buffer was HBS-EP+ with 300 mM sodium chloride and 0.1 mg/mL BSA (Sigma A7906). […] For binding kinetics assay a series of cycles were performed, each cycle consisted of 1) mAb capture, 2) Ag or buffer injection, 3) dissociation phase and 4) regeneration. […] No capture of the antibody was made on the reference surface to serve for primary referencing and as a negative control. […] At the end of each cycle the surface was regenerated with 10 mM glycine, pH 1.5 at a flow rate of 60 μL/min in pulses of 60 and 10 sec. Binding data were fit to the 1:1 Langmuir model with mass transport term included using Biacore T200 Evaluation Software to determine the binding constants.

T1 sequence (P15692 other isoform, or with tags, fused parts or gaps limits assumed): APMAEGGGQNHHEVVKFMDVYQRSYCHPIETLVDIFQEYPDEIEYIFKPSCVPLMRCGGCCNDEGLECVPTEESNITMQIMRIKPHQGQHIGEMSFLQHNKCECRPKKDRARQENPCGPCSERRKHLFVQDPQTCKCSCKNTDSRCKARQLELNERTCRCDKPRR

B1: bevacizumab variant H97F (taken as IgG format) (antibody, name in Kabat numbering, V domains shown)
VH: EVQLVESGGGLVQPGGSLRLSCAASGYTFTNYGMNWVRQAPGKGLEWVGWINTYTGEPTYAADFKRRFTFSLDTSKSTAYLQMNSLRAEDTAVYYCAKYPFYYGSSHWYFDVWGQGTLVTVSS
VL: DIQMTQSPSSLSASVGDRVTITCSASQDISNYLNWYQQKPGKAPKVLIYFTSSLHSGVPSRFSGSGSGTDFTLTISSLQPEDFATYYCQQYSTVPWTFGQGTKVEIKR
notes: also called H97F mutation alone
**Q.** B1 was tested. Which “fold improvement in off-rate over wild type” value did it give?
**A.** The value was greater than 6 fold.

— US20150299307A1 (AbbVie / Abbott, published 2015)
